{"source": "paper PMC4300955", "molecular_target": "53BP1 (UniProt Q12888)", "assay": "co-immunoprecipitation, Western blot", "details": "reference: wild type MOF, 3-6 h after 10 Gy; sites T392", "data": [{"substance": "MOF (hMOF) (from UniProt Q9H7Z6) MOF-T392A, 3-6 h after 10 Gy", "values": [{"measurement": "binding against the reference", "result": "stronger"}]}]}
